The source of these data is US11161884B2 (SAVID THERAPEUTICS INC., priority 2014, dated 2021).

Data set [1] deals with DLD1 cells having epiregulin expressed. Nature of the data set: FACS analysis of cell surface binding potential. In kind it is cell-based, human. Conditions: 0, 0.5, 5, 50 nM, on ice 30 minutes. On the procedure:
Cell surface binding potential was determined by FACS, using labeled antibodies that are anti-epiregulin scFv-V2122-FITC, epiregulin IgG-FITC and anti-epiregulin scFv-FITC. More specifically, dilute solutions of the labeled antibodies having concentrations of 0 nM, 0.5 nM, 5 nM and 50 nM were allowed to react on ice for 30 minutes with DLD1 cells (1×10^6 cells/mL, […]) having epiregulin expressed therein, and then fluorescence was measured using flow cytometer guava easyCyte 5. The measurement followed the usage and dosage instructions given in the manual of the instrument.
On the technique in general: A flow cytometer gives signals particle by particle.

A further data set relates to DLD1 cells. Nature of the data set: Cell staining and analysis of internalization. Type of data set: cell-based, human. The conditions noted are these: for staining of the surface of the cell membrane: DLD1, 25 nM, 50 nM and 100 nM. On the procedure: Human colorectal cancer-derived DLD1 cells, used for cell staining, were cultured in a complete medium RPNI1640 (containing 10% FBS), and seeded in uClear 96-well plate (Greiner) in a density of 1×10^4 cells/well, two days before the assay. In the cell staining, first the medium was replaced with a complete medium added with Hoechst 33342 so as to adjust the concentration to 1 μM, and 15 minutes after, each of anti-epiregulin scFv-V2122-FITC, epiregulin IgG-FITC and anti-epiregulin scFv-FITC was added to the individual wells so as to adjust the concentration to 25 nM, 50 nM and 100 nM.
Binding of antibody to the cell surface, and internalization were analyzed using IN Cell Analyzer 6000 (GE Healthcare BioScience Corp.), and recorded by time lapse imaging at 5 minute intervals.

The target of data set [2] is T1, Pro-EPR-mFc (extracellular domain of epiregulin fused with murine Fc region) (Homo sapiens, UniProt O14944).
T1 construct: made in house; host or cells: Expi293F cells, pcDNA3.4 vector
T1 sequence (O14944 with tags, fused parts or gaps): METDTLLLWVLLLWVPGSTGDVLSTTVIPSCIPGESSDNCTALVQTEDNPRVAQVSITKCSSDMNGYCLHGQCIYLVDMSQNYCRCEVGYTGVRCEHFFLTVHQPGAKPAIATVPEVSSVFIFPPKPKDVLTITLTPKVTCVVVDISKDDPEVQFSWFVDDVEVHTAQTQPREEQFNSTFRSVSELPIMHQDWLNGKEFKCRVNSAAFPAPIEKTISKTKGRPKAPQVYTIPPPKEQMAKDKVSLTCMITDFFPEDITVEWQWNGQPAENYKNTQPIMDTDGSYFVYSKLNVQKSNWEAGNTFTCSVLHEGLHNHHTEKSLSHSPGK
Nature of the data set: SPR antigen binding potential (Biacore T200). Conditions: for Kd: SPR kinetics assay, Pro-EPR-mFc captured on CM5, read-out: affinity to the antigen after FITC labeling. An excerpt:
Next, in order to confirm whether the labeling reduced the binding potential or not, the antigen binding potential of anti-epiregulin scFv-V2122-FITC was confirmed by SPR (Biacore T200). More specifically, protein (Pro-EPR-mFc) obtained by fusing the extracellular domain of epiregulin which functions as a ligand with murine Fe region is captured on the sensor chip CM5 having anti-Murine IgG antibody immobilized thereon, and then eluted for kinetics assay with an analyte composed of a two-fold dilution series prepared by diluting a 20 nM anti-epiregulin scFv-V2122-FITC solution into nine steps (FIG. 14). […] Also epiregulin IgG and anti-epiregulin scFv protein were investigated in the binding test in the same way as described above, using a two-fold dilution series prepared by diluting a 300 nM solution into nine steps (FIG. 14). Data was analyzed using Biacore evaluation software.
On the technique in general: Surface plasmon resonance follows binding to a sensor surface in real time, without labels.

In another data set the test system is DLD1 tumor. Nature of the data set: In vivo imaging, DLD1 heterotransplantation model. Also on record: species or system nude mice. Conditions: 25, 50, 100 μg intravenously, pre-labeled with Psyche F-IRDye 800; imaging 2, 24, 48 hours. On the procedure: The thus purified anti-epiregulin scFv-V2122 was mixed with Psyche F-IRDye 800 (Compound 44 in Example) dissolved in DMSO (final concentration was ten-fold molar concentration), and the mixture was incubated on ice for 10 minutes. The buffer was then replaced with Japanese Pharmacopoeia physiological saline (Otsuka Pharmaceutical Co., Ltd.) using Zeba Spin Desalting Column (Thermo Fisher Scientific Inc.) and was stored under cooling. Epiregulin IgG was labeled using ICG Labeling Kit-NH2 (Dojindo Laboratories).
Suspension liquid of human colorectal cancer-derived DLD1 cell and Matrigel Matrix (Corning) were mixed in a ratio of 1:1 (5×10^6 cells/0.1 mL), and 0.1 mL of the mixed liquid was administered subcutaneously in the left side of 5 to 6-week-old female nude mice (Sankyo Labo Service Corporation, Inc.). The mice were bred for several weeks to produce tumor. One week before imaging, the feed was switched to a low fluorescence feed (iVid #1, Oriental Yeast Co., Ltd.) and the breeding was continued. […]
Anti-epiregulin scFv-V2122 antibody (25 μg, 50 μg, 100 μg) preliminarily labeled with fluorescence by allowing it to react with Psyche F-IRDye 800 (Compound 44 in Example), or fluorescent-labeled epiregulin IgG (50 μg) was intravenously administered to nude mice having established DLD1 tumor. […]

Data set [3] is described as follows: Immunogenicity testing, antibody in serum analyzed by SPR. Type of data set: in vivo, crab-eating monkey (Macaca fascicularis). The conditions noted are these: 1 mg purified protein administered three times (Day 0, 21, 42); four monkeys. The procedure: Immunogenicity testing was conducted using four crab-eating monkeys. One milligram of the purified protein was administered three times. Before administration, blood was collected for preparing a negative control serum, followed by three times of administration of 1 mg each of purified protein. More specifically, letting the first day of administration of Day 0, the second administration fell on Day 21, and the third administration fell on Day 42. For V2122, blood was collected on Days 7, 14, 28 and 35 to prepare serum samples, and for the other, blood was collected on Days 7, 14, 28, 35, 49 and 56 to prepare serum samples.
Antibody against V2122 in the serum samples was analyzed by surface plasmon resonance (SPR). More specifically, Biacore T200 (GE Healthcare BioScience Corp.) was used as a measuring instrument, which was operated in the mode using immunogenicity package. The sensor chip was CM5. As instructed by the manual, V2122 protein (10 μg/mL) was immobilized on the CM5 sensor chip using an amine coupling kit. Serum was diluted ten-fold with a running buffer (HBS-EP, GE Healthcare BioScience Corp.) for the interaction analysis. More specifically, the serum diluted ten-fold was loaded into the running buffer at a flow rate of 10 μL/min for 5 minutes. The obtained sensorgram was analyzed using an analytical software named Biacore T200 Evaluation Software.

The nature of data set [4]: SPR interaction of streptavidin mutants with biotin (Comparative Example 1). Type of data set: binding. The conditions noted are these: biotin 1.8-1800 nM; protein immobilized via His-Tag. On the procedure: (§1) More specifically, using Biacore T200 (GE Healthcare BioScience Corp.) as a measuring instrument, and Sensor Chip NTA (GE Healthcare BioScience Corp.) as a sensor chip, the protein was immobilized on the sensor chip by way of His-Tag having been fused to the core protein. The running buffer was prepared using HBS-P(+), as described in the manual. A dilution series of Compound was prepared by using the running buffer in seven steps of 1.8 nM, 9 nM, 18 nM, 90 nM, 180 nM, 900 nM and 1800 nM, to obtain data.

Data set [5] in a line: SPR interaction of streptavidin mutants with Compound C (Comparative Example 2). Type of data set: binding. Conditions: Compound C 1.8-1800 nM; protein immobilized via His-Tag.
Source text: as §1, with “Using the purified two […] core streptavidin mutants (cSA-Y43A, cSA-S45A) described above, and purified V2122 protein, interaction with Compound C was investigated by surface plasmon resonance (SPR). More” for “More”

B1: anti-epiregulin scFv-FITC: FITC-labeled anti-epiregulin scFv protein (SEQ ID NO: 22) (protein)
scFv: MKYLLPTAAAGLLLLAAQPAMAQVQLQQSGAEVKKPGASVKVSCKASGFNIKDTYMHWVRQAPEQGLEWMGRIDPLNDKTKYDPKFQGRVTITADTSTNTAYLELSSLTSEDTAVYYCARGGGDPVFVYWGQGTLVTVSASSGGGGSGGGGSGGGGSGGGGSGGDIQMTQSPSSLSASVGDRVTITCKASQDINKYLAWYQHKPGQAPRLLIHYTSTLHPGIPSRFSGSGSGTDFTFSISSLQPEDIATYYCLQYDNLRTFGGGTKVEIKRTSHHHHHH
modifications: FITC label
As for B1, in data set [1], the “cell surface binding potential by FACS” value is listed as “level of binding potential lower than those shown by the former two”. The “staining of the surface of the cell membrane” value in the data set with DLD1 cells is on record as “staining of the surface of the cell membrane was observed”. Also, the Kd in data set [2] was 120 nM.

B2: anti-epiregulin scFv-V2122: fusion protein formed by anti-epiregulin scFv and V2122; SEQ ID NO: 30 (protein)
chain: MKYLLPTAAAGLLLLAAQPAMAQVQLQQSGAEVKKPGASVKVSCKASGFNIKDTYMHWVRQAPEQGLEWMGRIDPLNDKTKYDPKFQGRVTITADTSTNTAYLELSSLTSEDTAVYYCARGGGDPVFVYWGQGTLVTVSASSGGGGSGGGGSGGGGSGGGGSGGDIQMTQSPSSLSASVGDRVTITCKASQDINKYLAWYQHKPGQAPRLLIHYTSTLHPGIPSRFSGSGSGTDFTFSISSLQPEDIATYYCLQYDNLRTFGGGTKVEIKRTSGGGGSGGGGAEAGITGTWSDQLGDTFIVTAGADGALTGTYENAVGGAESRYVLTGRYDSAPATDGSGTALGWTVAWKNNSKNAHSATTWSGQYVGGADAKINTQWLLTSGTTNANAWKSTLVGHDTFTKVKPSAASHHHHHH
As for B2, the accumulation in tumor entry in the data set with DLD1 tumor is listed as “accumulate in the tumor of the model mice earlier (2 hours after administration) than the labeled IgG”.

B3: anti-epiregulin scFv-V2122-FITC: FITC-labeled product of purified anti-epiregulin scFv-V2122 (protein)
scFv: QVQLQQSGAEVKKPGASVKVSCKASGFNIKDTYMHWVRQAPEQGLEWMGRIDPLNDKTKYDPKFQGRVTITADTSTNTAYLELSSLTSEDTAVYYCARGGGDPVFVYWGQGTLVTVSASSGGGGSGGGGSGGGGSGGGGSGGDIQMTQSPSSLSASVGDRVTITCKASQDINKYLAWYQHKPGQAPRLLIHYTSTLHPGIPSRFSGSGSGTDFTFSISSLQPEDIATYYCLQYDNLRTFGGGTKVEIKRTSGGGGSGGGGAEAGITGTWSDQLGDTFIVTAGADGALTGTYENAVGGAESRYVLTGRYDSAPATDGSGTALGWTVAWKNNSKNAHSATTWSGQYVGGADAKINTQWLLTSGTTNANAWKSTLVGHDTFTKVKPSAASHHHHHH
For the molecule B3, in data set [1], the “cell surface binding potential by FACS” value is given as “equivalent levels of binding potential”. Also, the “time at which internalization began to be observed after addition of antibody” value with DLD1 cells (DLD1) is reported as “approximately 10 minutes”. Also, the “staining of the surface of the cell membrane” value in the data set on DLD1 cells was “staining of the surface of the cell membrane was observed”. For the same molecule, the “migration of fluorescence into the cytoplasm” value in the data set on DLD1 cells (DLD1, sixty-five minutes after addition) is listed as “almost entire part of fluorescence was found to migrate into the cytoplasm”. Also, the internalization result in the data set with DLD1 cells (DLD1, time lapse imaging at 5 minute intervals) is “distinct internalization was observed”. In addition, in data set [2], the “affinity relative to epiregulin IgG-FITC and anti-epiregulin scFv-FITC” value was in the range of 100 to 1000 times; the Kd turned out to be 0.23 nM.

B4: V2122: glycine mutant (N49G) of V212 streptavidin mutant; amino acid sequence SEQ ID NO: 4 (protein)
chain: AEAGITGTWSDQLGDTFIVTAGADGALTGTYENAVGGAESRYVLTGRYDSAPATDGSGTALGWTVAWKNNSKNAHSATTWSGQYVGGADAKINTQWLLTSGTTNANAWKSTLVGHDTFTKVKPSAAS
Take B4: the immunogenicity entry in data set [3] was “low as compared with the immunogenicity of the wild-type streptavidin and LISA314”. For the same molecule, in data set [4], the “interaction with biotin (sensorgram)” value is on record as “absence of specific binding”. The “interaction with Compound C (sensorgram)” value in data set [5] was “specific binding showing only an extremely slow dissociation”.
